Laboratory results from PMC6103731 (RNA Biology, 2017).

T1: EC1-2 domain of VE-cadherin
T1 sequence (P33151 whole entry, species assumed, looked up): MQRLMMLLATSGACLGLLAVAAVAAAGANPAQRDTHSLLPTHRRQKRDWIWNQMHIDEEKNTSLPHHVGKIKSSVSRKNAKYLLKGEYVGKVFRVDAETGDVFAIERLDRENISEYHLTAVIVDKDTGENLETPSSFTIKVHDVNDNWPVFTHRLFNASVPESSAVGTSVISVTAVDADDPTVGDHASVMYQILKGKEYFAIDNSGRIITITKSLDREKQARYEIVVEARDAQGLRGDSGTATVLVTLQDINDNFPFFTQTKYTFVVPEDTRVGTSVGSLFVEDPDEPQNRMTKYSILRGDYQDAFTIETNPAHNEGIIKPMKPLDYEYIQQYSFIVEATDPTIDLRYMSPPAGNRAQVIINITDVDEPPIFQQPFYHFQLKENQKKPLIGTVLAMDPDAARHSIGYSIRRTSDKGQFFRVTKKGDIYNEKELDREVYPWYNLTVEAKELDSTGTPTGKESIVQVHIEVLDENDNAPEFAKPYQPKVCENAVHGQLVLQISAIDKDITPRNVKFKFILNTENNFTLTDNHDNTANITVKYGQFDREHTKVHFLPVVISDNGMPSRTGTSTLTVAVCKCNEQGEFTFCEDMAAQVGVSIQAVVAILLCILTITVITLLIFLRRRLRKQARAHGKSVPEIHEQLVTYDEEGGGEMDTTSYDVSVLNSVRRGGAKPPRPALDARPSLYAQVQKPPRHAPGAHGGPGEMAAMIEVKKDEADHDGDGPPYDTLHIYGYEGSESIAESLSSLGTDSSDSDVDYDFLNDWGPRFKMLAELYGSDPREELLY

B1: human H130R T2-TrpRS (domain or fragment, UniProt P23381 97-471, looked up)
chain: GIDYDKLIVRFGSSKIDKELINRIERATGQRPHRFLRRGIFFSHRDMNQVLDAYENKKPFYLYTGRGPSSEAMHVGHLIPFIFTKWLQDVFNVPLVIQMTDDEKYLWKDLTLDQAYSYAVENAKDIIACGFDINKTFIFSDLDYMGMSSGFYKNVVKIQKHVTFNQVKGIFGFTDSDCIGKISFPAIQAAPSFSNSFPQIFRDRTDIQCLIPCAIDQDPYFRMTRDVAPRIGYPKPALLHSTFFPALQGAQTKMSASDPNSSIFLTDTAKQIKTKVNKHAFSGGRDTIEEHRQFGGNCDVDVSFMYLTFFLEDDDKLEQIRKDYTSGAMLTGELKKALIEVLQPLIAEHQARRKEVTDEIVKEFMTPRKLSFDFQ
B2: wild-type human T2-TrpRS (domain or fragment)
chain: GIDYDKLIVRFGSSKIDKELINRIERATGQRPHHFLRRGIFFSHRDMNQVLDAYENKKPFYLYTGRGPSSEAMHVGHLIPFIFTKWLQDVFNVPLVIQMTDDEKYLWKDLTLDQAYSYAVENAKDIIACGFDINKTFIFSDLDYMGMSSGFYKNVVKIQKHVTFNQVKGIFGFTDSDCIGKISFPAIQAAPSFSNSFPQIFRDRTDIQCLIPCAIDQDPYFRMTRDVAPRIGYPKPALLHSTFFPALQGAQTKMSASDPNSSIFLTDTAKQIKTKVNKHAFSGGRDTIEEHRQFGGNCDVDVSFMYLTFFLEDDDKLEQIRKDYTSGAMLTGELKKALIEVLQPLIAEHQARRKEVTDEIVKEFMTPRKLSFDFQ

Experiments:
crystal structure = target: the molecule itself; assay: crystal structure
[1] = target: T1, EC1-2 domain of VE-cadherin; assay: SPR

Binder | stoichiometry N (crystal structure) | fold stronger binding affinity than WT T2-TrpRS [1] [fold] | kon [1] [M⁻¹ s⁻¹]
B1 | 2 | > 50 | 2.71e+07
B2 | – | – | 176000
